Measurements taken from paper PMC3102601.

How the values were obtained:
Experiment in all cases: purified protein
purified protein [1] = substrate: O=CCP(=O)(O)O; conditions: Zn2+; 25.0 °C
purified protein [2] = substrate: O=[N+]([O-])c1ccc(OP(=O)(O)O)cc1; conditions: Zn2+; 25.0 °C
purified protein [3] = substrate: Nc1ncnc2c1ncn2[C@@H]1O[C@H](COP(=O)(O)OP(=O)(O)OP(=O)(O)O)[C@@H](O)[C@H]1O; type: biochemical, Pseudomonas fluorescens; conditions: Zn2+ active site; phosphoryl transfer to Thr64; 25.0 °C

B1: phosphonoacetate hydrolase (PAc hydrolase) (Pseudomonas fluorescens) (protein)
chain: TQLISVNSRSYRLSSAPTIVICVDGCEQEYINQAIQAGQAPFLAELTGFGTVLTGDCVVPSFTNPNNLSIVTGAPPSVHGICGNFFFDQETQEEVLMNDAKYLRAPTILAEMAKAGQLVAVVTAKDKLRNLLGHQLKGICFSAEKADQVNLEEHGVENILARVGMPVPSVYSADLSEFVFAAGLSLLTNERPDFMYLSTTDYVQHKHAPGTPEANAFYAMMDSYFKRYHEQGAIVAITADHGMNAKTDAIGRPNILFLQDLLDAQYGAQRTRVLLPITDPYVVHHGALGSYATVYLRDAVPQRDAIDFLAGIAGVEAVLTRSQACQRFELPEDRIGDLVVLGERLTVLGSAADKHDLSGLTVPLRSHGGVSEQKVPLIFNRKLVGLDSPGRLRNFDIIDLALNHLA
Q: For B1, which Km (purified protein [1]) is on record?
A: 330 ± 10 µM

Q: What about the kcat (purified protein [1]) of the same protein?
A: 0.027 ± 0.01 s⁻¹

Q: What about the kcat/Km (purified protein [1]) of the same protein?
A: 80 M⁻¹ s⁻¹

Q: And the Km (purified protein [2])?
A: 14000 ± 200 µM

Q: What about the kcat (purified protein [2]) of the same protein?
A: 0.22 s⁻¹

Q: What about the kcat/Km (purified protein [2]) of the same protein?
A: 20 M⁻¹ s⁻¹

Q: And the Km (purified protein [3])?
A: 1000 µM

Q: What about the kcat (purified protein [3]) of the same protein?
A: 0.0002 s⁻¹

Q: And the kcat/Km (purified protein [3])?
A: 0.2 M⁻¹ s⁻¹
